Data set [1] deals with T1, AdipoR1 (Mus musculus, UniProt Q91VH1).
T1 sequence (Q91VH1 1-375): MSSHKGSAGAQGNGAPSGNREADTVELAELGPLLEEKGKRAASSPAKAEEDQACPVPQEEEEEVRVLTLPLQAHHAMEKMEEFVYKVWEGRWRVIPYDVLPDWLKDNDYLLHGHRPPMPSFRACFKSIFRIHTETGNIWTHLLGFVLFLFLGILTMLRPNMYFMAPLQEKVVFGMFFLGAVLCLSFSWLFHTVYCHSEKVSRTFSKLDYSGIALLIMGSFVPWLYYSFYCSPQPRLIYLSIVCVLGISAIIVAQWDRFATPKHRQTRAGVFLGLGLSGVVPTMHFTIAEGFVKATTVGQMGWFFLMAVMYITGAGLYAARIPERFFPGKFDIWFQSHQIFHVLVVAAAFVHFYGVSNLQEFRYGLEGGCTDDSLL
The experiment in a line: Patch clamp test, whole-cell current of C2C12 myocytes. The data set is classed as cell-based. Also noted: endogenous in cells; host or cells: mouse C2C12 myocytes (differentiated from myoblasts). Particulars: holding potential -60 mV, adiponectin 30 μg/ml 30 sec. As for the experimental part: Whole-cell currents were amplified with a patch-clamp amplifier (CEZ-2400; Nihon Kohden) and were digitized with a PowerLab digitizer (AD Instruments). Ringer's solution was used for the extracellular solution. The electrode solution contained 140 mM KCl, 10 mM HEPES, 5 mM EGTA-2K, and 10 mM D-glucose (pH 7.4). The data were low-pass filtered at 2 kHz and were sampled at 20 kHz. Ligands dissolved in Ringer's solution were applied at least twice with a self-made pressure-ejection system and via a two-barreled glass capillary.
On the technique in general: Patch clamp records ionic current or voltage across a cell membrane.

The test system of the next data set is CaMKI, HDAC5. Put plainly: Phosphorylation of CaMKI and HDAC5 in C2C12 myocytes (immunoblotting). The data set is classed as cell-based, mouse. Particulars: adiponectin 30 μg/ml, 0-20 min. As for the experimental part:
(§1) The mouse C2C12 myoblasts were grown in 90% Dulbecco's modified high glucose Eagle's medium containing 10% (v/v) fetal bovine serum. When the cells reached 80% confluent, the myoblasts were induced to differentiate into myocytes by replacing the medium with a low serum differentiation medium (98% Dulbecco's modified high glucose Eagle's medium, 2.5% (v/v) horse serum). The medium was changed daily. The C2C12 cells were transfected by using Pofectamine 2000 (Invitrogen) and following the manufacturer's instructions.
Background: In western blotting, separated proteins are transferred to a membrane and probed.

Data set [2] has as its system C2C12 myocytes. The experiment in a line: NAD+/NADH measurements in C2C12 myocytes. It counts as cell-based, mouse. The following applies: C2C12 myocytes treated with adiponectin. As for the experimental part:
NAD^+ and NADH nucleotides were directly measured by the method described in the following document (Nature, 458, 1056-1060 (2009)). Whole skeletal muscles or two 10 cm dishes of C2C12 myocytes were homogenized in 200 μl of an acid extraction buffer to measure the NAD^+ concentration, or 200 μl of alkali extraction to obtain the NADH concentration. Next, homogenates were neutralized and the concentration of nucleotides was measured fluorimetrically after an enzymatic cycling reaction using 5 μl of a sample. Values for both nucleotides were detected within the linear range. NAD^+/NADH ratios were calculated by comparing the ratios obtained from each animal or from parallel cell dishes in each experiment.

Data set [3] in a line: Plasma adiponectin level after intravenous injection of adiponectin. It counts as in vivo. The following applies: 30 μg per 10 g body weight intravenously through inferior vena cava catheter, mice. From the text:
(§2) Mouse full-length adiponectin was generated as described in the following documents (Nature Med. 8, 1288-1295 (2002); Nature Med. 7, 941-946 (2001); Nature 423, 762-769 (2003)).

Data set [4] has as its target T1, AdipoR1. The experiment in a line: Calcium imaging in skeletal muscle (soleus, fura-2). Particulars: adiponectin 30 μg/ml. Also noted: from tissue; host or cells: soleus muscle of control (Adipor1 lox/lox) and muscle-R1KO mice. It counts as cell-based, mice. The procedure:
From 8-10 weeks-old mice, soleus muscles were dissected. Preparations were treated with 5 μM fura-2/AM in the presence of 0.1% Chremophore EL (Sigma) for 15 min. Fluorescence images were acquired using an inverted fluorescence microscopy (IX71, Olympus) equipped with a cooled charge-coupled device (CCD) camera (iXon, Andor) and a dry objective lens (10×, NA=0.3, Olympus) through a filter set consisting of a 327-353 nm and 369-391 nm excitation filter, a 409 nm dichroic mirror, and a 515-560 nm fluorescent filter. Ligands were supplied using the superfusing Ringer's solution (150 mM NaCl, 4 mM KCl, 2.0 mM CaCl2, 1.0 mM MgCl2, 30 mM D-glucose, 5 mM HEPES (pH 7.4)).

Data set [5] deals with C2C12 myocytes. Put plainly: Mitochondrial content assay in C2C12 myocytes (mtDNA copy number, MitoTracker Green). It counts as cell-based, mouse. The procedure:
Mice used were from 8 to 10 week old at the time of the experiment. […] Induction of myogenic differentiation using C2C12 cells was carried out according to the method described in the following document (Nature Med. 8, 1288-1295 (2002)). By day 5, the cells had differentiated into multinucleated contracting myocytes. C2C12 myocytes were used after myogenic differentiation in all experiments.
as §1
Mitochondrial content assays were carried out as described in the following document (Cell Metab. 4, 75-87 (2006)), with slight modifications. Quantification of the mitochondrial content was conducted by using mtDNA and MitoTracker Green probe (Molecular Probes) according to the method as described in the following document (Obes. Res. 13, 574-581 (2005)). MitoTracker Green probe preferentially accumulates in mitochondria regardless of the mitochondrial membrane potential and provides an accurate assessment of mitochondrial mass. Cells were washed with PBS and after addition of 100 nM MitoTracker Green FM (Molecular Probes), incubated at 37° C. for 30 min. Cells were harvested by using trypsin/EDTA and resuspended in PBS. Fluorescence intensity was detected with excitation and emission wavelengths of 490 and 516 nm, respectively, and the values thus measured were corrected for total protein (mg/ml).

The subject of a further data set is PGC-1α. Put plainly: PGC-1α acetylation (acetyl-lysine on immunoprecipitates) in C2C12 myocytes. The data set is classed as cell-based, mouse. Particulars: treatment for 2 hr. The procedure: as §1
A further data set has as its system CaMKI. Put plainly: CaMKI phosphorylation in skeletal muscle in vivo. The following applies: adiponectin 30 μg per 10 g body weight, 5 min; via AdipoR1. Also noted: species or system mice.
Source text: as §2

Where [6] appears, read: C2C12 myocytes incubated with 30 μg/ml adiponectin.

B1: adiponectin: recombinant murine full-length adiponectin, internal ligand of adiponectin receptor 1 (protein, UniProt Q60994 1-247, looked up)
chain: MLLLQALLFLLILPSHAEDDVTTTEELAPALVPPPKGTCAGWMAGIPGHPGHNGTPGRDGRDGTPGEKGEKGDAGLLGPKGETGDVGMTGAEGPRGFPGTPGRKGEPGEAAYVYRSAFSVGLETRVTVPNVPIRFTKIFYNQQNHYDGSTGKFYCNIPGLYYFSYHITVYMKDVKVSLFKKDKAVLFTYDQYQEKNVDQASGSVLLHLEVGDQVWLQVYGDGDHNGLYADNVNDSTFTGFLLYHDTN
modifications: full-length
With B1, the “whole-cell inward current responses” value with AdipoR1 [1] is “observed”. In addition, in the data set with CaMKI, HDAC5, the CaMKI phosphorylation result is “rapid, robust, and transient increase”; the HDAC5 phosphorylation entry is on record as “increased”. In addition, in the data set on C2C12 myocytes [2], the “NAD+ and NADH contents” value is recorded as “increased”; the “NAD+/NADH ratio” value is reported as “increased”. Further, the plasma adiponectin levels entry in data set [3] was “approximately 30 μg/ml”. In addition, the “intracellular calcium ion concentration in soleus muscle (fura-2)” value in the data set with AdipoR1 [4] (control mice) is reported as “increased”. Besides, in the data set with AdipoR1 [4] (muscle-R1KO mice), the “calcium responses of soleus muscle to adiponectin” value is listed as “almost completely disappeared”. Further, the mitochondrial biogenesis entry in the data set on C2C12 myocytes [5] (C2C12 myocytes expressing PGC-1α-R13 mutant) is on record as “failed to further induce”. For the same molecule, in the data set on C2C12 myocytes [5] (setting [6]), the “amount of mitochondria as assessed by MitoTracker green” value was “increased” and the “mitochondrial DNA content” value is on record as “increased”. For the same molecule, in the data set on PGC-1α, the PGC-1α acetylation entry was “decreased”. Further, the “phosphorylation of CaMKI in skeletal muscle in vivo” value with CaMKI is “significantly increased”.
